Results as given in patent US6682731 (LUDWIG INSTITUTE FOR CANCER RESEARCH, dated 2004).

Target: T1, HLA-A2 molecule (MHC class I heterodimer, no peptide of the filing added) (human)
T1 construct: as control target of the CTL assays it stood on T2 cells without added peptide or on COS-7 cells transfected with HLA-A2 alone; The subtype is printed only as HLA-A2.01 for the transfected gene; also called HLA-A2.01; MHC class-I molecule
Assay: HLA-A2 assembly/stabilisation in 0.174 cell lysate with 10 and 20 uM peptide, immunoprecipitation with mAb BB7.2, gel
Procedure: It is an HLA-A2 presenting cell line deficient in the pathway which supplies peptides to the endoplasmic reticulum, the site of assembly of MHC class-I heterodimers. The cell line can assemble MHC class-I molecules, but these are unstable and, on cell lysis, dissociate into free heavy and light chains during overnight incubation. The heterodimers can, however, be stabilized in vitro via addition of appropriate peptide ligands. […] Thus, the stabilized molecules can be immunoprecipitated with antibodies specific for the MHC class-I molecule.
In the first part of these experiments, peptides were tested to determine if they facilitated assembly of HLA-A2 in the cell line. […] The cells were then washed, once, with phosphate buffered saline, and then resuspended in 10 ml of lysis buffer (0.5% NP-40; 0.5% Mega 9, 150 mM NaCl, 5 mM EDTA, 50 mM Tris [pH 7.5], 2 mM phenylmethylsulfonylfluoride, 5 mM iodoacetamide). The lysates were then incubated with peptide (10 μM and 20 μM), for 15–18 hours. Nuclei were then pelleted in a microfuge, and the lysates were precleared, overnight, at 4° C. with 0.2 ml of washed, 10% (w/v) Staphylococcus A organisms. […] The mixtures were incubated for 90 minutes on ice, followed by addition of bovine serum albumin to 1% (w/v), and 100 ul of 5% (w/v) protein-A Sepharose beads.

TLVEVTLGEV [peptide SEQ ID NO: 7, Thr Leu Val Glu Val Thr Leu Gly Glu Val]
binding result: binds
